This is an account of results in patent US20260132208A1.

Assay [1] concerns the target human CCR8 (human) (UniProt P51685). Put plainly: flow cytometry on lymphocytes from ovarian cancer ascites, 0.1 µg antibody. On the technique in general: A flow cytometer gives signals particle by particle.
The target is the same in assay [2]. Put plainly: flow cytometry on lymphocytes from ovarian cancer ascites, 1 µg antibody.
For assay [3] the target is unchanged. Kind of assay: flow cytometry on lymphocytes from ovarian cancer ascites, 0.5 µg antibody.
Assay [4] shares this target. Kind of assay: cell-based or functional assay.
Assay [5] shares this target. Put plainly: flow cytometry, hCCR8-transfected CHO-K1 cells.

Turning to Isotype ctrl (antibody), the Positive cells in assay [1] is 2.94%; in assay [2], 5.06%; in assay [3], 3.81%.
In assay [4], “human CCL1 (from UniProt P22362 24-96) (ligand)” yielded an EC80 of hCCL1, hCCR8 Gi2 BRET, HEK-293 in suspension of 6 nM and an EC80 of hCCL1, hCCR8 Gi2 BRET, adherent HEK-293 (protocol #4) of 0.6 nM.
In assay [5], “murine anti-human CCR8 monoclonal antibody L263G8” registered a % positive cells of 86.5%. The same substance registered an MFI fold change to isotype ctrl in assay [5] of 19.8 fold. Also, the Positive cells in assay [1] was 9.5%; in assay [2] it was 8.64%; in assay [3], 9.86%.
